Results taken from US20250034275A1 (CHIA TAI TIANQING PHARMACEUTICAL GROUP, published 2025).
Where two headings read alike, the source gives them in different places.

Legend:
[1] = target: human Trop-2 (on the surface of human cell lines) (human) (UniProt P09758); test: flow cytometry, Capan-1 cells, antibody at 3 ug/mL
[2] = target: human Trop-2 (on the surface of human cell lines) (human) (UniProt P09758); test: flow cytometry, HCC1806 cells, antibody at 3 ug/mL
[3] = target: human Trop-2 (on the surface of human cell lines) (human) (UniProt P09758); test: flow cytometry, NCI-H322 cells, antibody at 3 ug/mL
[4] = target: Macaque Trop-2-His (macaque); test: ELISA, plate-coated macaque Trop-2-His
[5] = target: human Trop-2 (on the surface of human cell lines) (human) (UniProt P09758); test: flow cytometry, PC-3 cells, antibody at 3 ug/mL
[6] = target: human Trop-2 (on the surface of human cell lines) (human) (UniProt P09758); test: flow cytometry, HCC38 cells
[7] = target: Macaque Trop-2-His (macaque); test: ELISA, plate-coated macaque Trop-2-His; remark: listed apart in the source
[8] = target: human Trop-2 (on the surface of human cell lines) (human) (UniProt P09758); test: flow cytometry, HCC38 cells; remark: listed apart in the source
[9] = target: human Trop-2 (on the surface of human cell lines) (human) (UniProt P09758); test: cell-based or functional assay
[10] = target: human Trop-2 (on the surface of human cell lines) (human) (UniProt P09758); test: flow cytometry, OVCAR-3 cells, antibody at 3 ug/mL
[11] = target: human Trop-2 (on the surface of human cell lines) (human) (UniProt P09758); test: flow cytometry, HCC38 cells, antibody at 3 ug/mL
[12] = target: human Trop-2 (on the surface of human cell lines) (human) (UniProt P09758); test: flow cytometry, HUVEC cells, antibody at 3 ug/mL
[13] = target: human Trop-2 (on the surface of human cell lines) (human) (UniProt P09758); test: flow cytometry, HCC1806 cells
[14] = target: human Trop-2 (on the surface of human cell lines) (human) (UniProt P09758); test: flow cytometry, HCC38 cells; remark: listed apart in the source
[15] = target: human Trop-2 (on the surface of human cell lines) (human) (UniProt P09758); test: flow cytometry, OVCAR-3 cells
human Trop-2-His [16] = target: T1, human Trop-2-His (human, UniProt P09758 27-274, limits assumed); test: ELISA, plate-coated human Trop-2-His
T1 construct: by analogy with the macaque construct it is probably the extracellular domain with a His tag; also called Trop-2-His protein
T1 sequence: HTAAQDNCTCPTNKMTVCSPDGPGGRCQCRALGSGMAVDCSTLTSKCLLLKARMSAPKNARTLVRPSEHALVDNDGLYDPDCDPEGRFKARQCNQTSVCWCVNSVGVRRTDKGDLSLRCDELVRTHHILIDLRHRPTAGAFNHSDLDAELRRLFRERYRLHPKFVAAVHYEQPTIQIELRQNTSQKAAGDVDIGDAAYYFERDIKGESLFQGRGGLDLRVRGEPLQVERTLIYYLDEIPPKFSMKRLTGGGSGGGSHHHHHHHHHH

[17] = target: human Trop-2 (on the surface of human cell lines) (human) (UniProt P09758); test: flow cytometry, OVCAR-3 cells; remark: listed apart in the source
[18] = target: human Trop-2 (on the surface of human cell lines) (human) (UniProt P09758); test: flow cytometry, HCC1806 cells; remark: listed apart in the source
[19] = target: Macaque Trop-2-His (macaque); test: ELISA, plate-coated macaque Trop-2-His; remark: listed apart in the source
human Trop-2-His [20] = target: T1, human Trop-2-His; test: SPR (Biacore 8K), antibody captured, Trop-2-His as analyte
Method in brief: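 Antibody captured on anti-human IgG-coated CM5 chip; human Trop-2-His flowed as analyte with real-time association/dissociation recording, 3M MgCl₂ regeneration. Double-subtracted curves fit to Langmuir 1:1 model giving ka, kd and KD.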

[21] = target: human Trop-2 (on the surface of human cell lines) (human) (UniProt P09758); test: flow cytometry, HCC1806 cells; remark: listed apart in the source

MFI [1]: 1.21e+06
Positive rate (%) [1]: 98.4%
Ratio (MFI of TINA to MFI of the IgG1 control) [1]: 18.4
MFI [2]: 1.66e+06
Positive rate (%) [2]: 99.9%
Ratio (MFI of TINA to MFI of the IgG1 control) [2]: 102
MFI [3]: 2.83e+06
Positive rate (%) [3]: 100%
Ratio (MFI of TINA to MFI of the IgG1 control) [3]: 133
EC50 [4]: 0.046 nM
MFI [5]: 68500
Positive rate (%) [5]: 69.1%
Ratio (MFI of TINA to MFI of the IgG1 control) [5]: 7.7
EC50 [6]: 1.04 nM
EC50 [7]: 0.106 nM
EC50 [8]: 1.21 nM
ADCC reporter (Jurkat-CD16a v158-NFAT-luciferase), target cell H322, EC50 [9]: 0.27 nM
ADCC reporter (Jurkat-CD16a v158-NFAT-luciferase), target cell HCC1806, EC50 [9]: 0.46 nM
MFI [10]: 182000
Positive rate (%) [10]: 99%
Ratio (MFI of TINA to MFI of the IgG1 control) [10]: 15.4
MFI [11]: 3.85e+06
Positive rate (%) [11]: 99.3%
Ratio (MFI of TINA to MFI of the IgG1 control) [11]: 119
MFI [12]: 125000
Positive rate (%) [12]: 22.9%
Ratio (MFI of TINA to MFI of the IgG1 control) [12]: 6.1
EC50 [13]: 0.84 nM
EC50 [14]: 0.79 nM
EC50 [15]: 1.29 nM
EC50 (human Trop-2-His [16]): 0.083 nM
EC50 (human Trop-2-His [16]; record 2): 0.166 nM
EC50 [17]: 1.28 nM
EC50 [18]: 0.73 nM
EC50 [19]: 0.063 nM
Kd (human Trop-2-His [20]): 12.5 nM
koff (human Trop-2-His [20]): 0.00239 s⁻¹
kon (human Trop-2-His [20]): 191000 M⁻¹ s⁻¹
EC50 [21]: 1.44 nM
B1: TINA (antibody, INN chains, looked up, V domains shown)
VH: QVQLVQSGAEVKKPGASVKVSCKASGYTFTTAGMQWVRQAPGQGLEWMGWINTHSGVPKYAEDFKGRVTISADTSTSTAYLQLSSLKSEDTAVYYCARSGFGSSYWYFDVWGQGTLVTVSS
VL: DIQMTQSPSSLSASVGDRVTITCKASQDVSTAVAWYQQKPGKAPKLLIYSASYRYTGVPSRFSGSGSGTDFTLTISSLQPEDFAVYYCQQHYITPLTFGQGTKLEIK
ADCC, PBMC killing (LDH), H322, EC50 [9]: 0.02 nM
ADCC, PBMC killing (LDH), H322, Maximum killing (%) [9]: 49.8%
ADCC, PBMC killing (LDH), HCC1806, EC50 [9]: 0.07 nM
ADCC, PBMC killing (LDH), HCC1806, Maximum killing (%) [9]: 38.5%
